# In the RNAGym collection of RNA variant scans (doi:10.1073/pnas.2313332121):
# B1: TPR t1 (parent)
# chain: GACCAAUCUGCCCUCAGAGCUCGAGAACAUCUUCGGAUGCAGAGGAGGCAGGCUUCGGUGGCGCGAUAGCGCCAACGUCCUCAACCUCCAAUGCAUCCCACCACAUGAUGAUGCCUGAAGAGCCUUGGUUUUUUG
# Variants of: B1
# Test: polymerase ribozyme fitness, log enrichment relative to wild type (log ratio); higher = more active; in vitro selection for triplet polymerase activity
# Procedure, shortened: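 Each subunit of a heterodimeric triplet polymerase ribozyme was mutagenized into a library by PCR, transcribed, and subjected to one round of in vitro selection, run in triplicate. Libraries were annealed with a biotinylated primer, the partner subunit and triplets, incubated frozen at −7 °C, and extended constructs were gel-excised, captured on streptavidin beads and recovered by RT-PCR. Input and output libraries were sequenced on Illumina, keeping genotypes with ≥10 input reads and ≥1 read per output. Fitness is log base 2 of genotype enrichment divided by wild-type enrichment, from inverse-variance-weighted replicate averages.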
row,Variant,polymerase ribozyme fitness (log ratio)
1,GACCAAUCAGCCCUCAGAGCUCGAGAACAUCUUCGGAUGCAGAGGAGGUAGGCUUCGGUGGCGCGAUAGCGCCAACGUCCUCAACCUCCAAUGCAUCCCACCACAUGAUAAUGCCUGAAGAGCCUUGGUUUUUUG [U9A C49U G110A],-1.43
2,GACCAAUCAGCCCUCAGAGCUCGAGAACAUUUUCGGAUGCAGAUGAGGCAGUCUUCGGUGUCGCGAUAGCGCCAACGUCCUCAACCUCCAAUGCAUCCCACCACAUGAUGUUGCCUGAAGAGCCUUGGUUUUUUG [U9A C31U G44U G52U G61U A111U],-6.18
3,GACCAAUCAGCCCUCAGAGCUCGAGAACAUCUUCGGAUGCAGAGGAGGCAGGCUUCGGUGGGGCGAUAGCGCCAACGUCCUCAACCUCCAAUGUAUCCCACCACAUGAUGAUGCCUGAAGAGCCUUGGUUUUUUG [U9A C62G C94U],-0.686
4,GACCAAUCAGCCAUCAGAGCUCGAGAACAUCUUCGGAUGCAGAGGAGGCAGGCUUCGGUGGCGCGAUAGCGCCAACGUCCUCAACCUCCAAUGCAUCCCACCACAUGAUGAUGCCUGAAGAGCCUUGGUUUUUUG [U9A C13A],0.483
5,GACCAAUCAGCCUUCAGAGCUCGAGAACAUCUUCGGAUGCAGAGGAGGCAGGCUUCGGUGGCGCGAUAGCGCCAACGUCCUCAACCUCCAAUGCAUCCCACCACAUGAUGAUGCCUGAAGAGCCUUGGUUUUUUG [U9A C13U],0.446
6,GACCAAUCAGCCCUCAGAGCUCGAGAACAUCUUCGGAUGCAGAGGAGGCAGGAUUCGGUGGCGCGAUAGCGCCAACGUCCUCAACUUCCAAUGCAUCCCACCACAUGAUGAUGCCUGAAGAGCCUUGGUUUUUUG [U9A C53A C86U],0.27
7,GACCAAUCAGCCCUCAGAGCUCGAGAACAUCUUCGGAUGCAGAGGAGGCAGGCUUCGGUGGCGCGAUAGUGCCGACGUCCUCAACCUCCAAUGCAUCCCACCAAAUGAUGAUGCCUGAAGAGACUUGGUUUUUUG [U9A C70U A74G C104A C123A],-3.22
8,GACCAAUCAGCUCUCAGAGCUCGAGACCAUCUUCGGAUGCAGAGGAGGCAGGUUUCGGUGGCGCGAUAGCGCCAACGUCCUCAACCUCCAAUGCAUCCCACCACAUGAUGAUGCCUGAAGAGCCUUGGUUUUUUG [U9A C12U A27C C53U],-2.63
9,GACCAAUCAGCCCUCAGAGCUCGAGAACAUGUUCGGAUGCAGAGGAGGCAGGCUUCGGUAGCGCGAUAGCGCCAACGUCCUCAACCUCGAAUGCAUCCCACCACAUGAUGCUGCCUGAAGAGCCUUAGUUUUUUG [U9A C31G G60A C89G A111C G127A],-7
10,GACCAAUCAGCCCUCAGAGCUCGAGAACAUCUUCGGAUGCAGAGGAGGCAGGCUUCGGUGGUACGAUAGCGCCAACGUCCUCAACCUCCAAUGCCUCCCACCGCAUGAAGAUGCCUGAAGAGCCUUGGUUUUUUG [U9A C62U G63A A95C A103G U109A],-7.15
11,GACCAAUCAGCCCUCAGAGCUCGAGAACAUGUUCGGAUGCAGAGGAGGCAGGCUUCGGUGUCGCGAUAGCGCCAACGUCCUCCACCUCCAAUGCAUCCCACCACAUCAUGAUGCCUGAAGAGCCUUGGUUUUUUG [U9A C31G G61U A83C G107C],-1.25
12,GACCAAUCAGCCCUCAGAGCUCGAGAACAUCUUCGGAUGCAGAGGAGGCAGGAUUCGGUGGCGCGAUAGCGCCAACGUCCUCAACCGCCAAUGCAUCCCACCACAUGAUGAUGCCUGAAGAGCCUUGGUUUUUUG [U9A C53A U87G],0.985
13,GACCAAUCAGCCUUCAGAGCUCGAAAACGUCUUCGGAUGCAGAGGAGGCAGGAUUCGGUGGCGCGAUAGCGCCAACGUCCUCAACCUCCAAUGCAUCCCACCACAUGAUGAUGGCUGAAGAGCCUUGGUUUUUUG [U9A C13U G25A A29G C53A C114G],-6.86
14,GACCAAUCAGCCCUCAGAGCUCGAGAACAUCUUCGGAUGCAGAGGAGGUAGGCUUCGGUGGCGCGAUAGCGCCAACGUCCUCAACCUCCAAUGCAUCCCACCACAUGAUGAUGCCUGAAGAGCCUUGGUUUUUUG [U9A C49U],-0.088
15,GACCAAUCAGCCCUCAGAGCUCGAGAACAUCUUCGGAUGCAGAGGAGGCAGGCUUCGGUGGGGCGAUAGCGCCAACGUGCUCAACCUCCAAUGCAUCCCACCACAUGAUGAUGCUUGAAGAGCCUUGGUUUUUUG [U9A C62G C79G C115U],-4.57
16,GACCAAUCAGCCCUCAGAGCUCGAGAACAUCUUCGGAUGAAGAGGAGGCAGGCUUCGGUGUCGCGAUAGCGCCAACGUCCUCAACCUCCAAUCGAUCCCACCACAUGAUGAUGCCUGAAGAGCUUUGGUUUUUUG [U9A C40A G61U G93C C94G C124U],-0.833
17,GACCAAUCAGCCCUCAGAGGUCGAGAACAUCUUCGGAUGCAGAGGAGGCAGGCUUCGGUGGCGCGAUAGCGCCAACGUCCUCAACCUCCAAUGCAUCCCACCACAUGAUGAUGCCCGAAGAGCCUUGGUUUUUUG [U9A C20G U116C],-2.71
18,GACCAAUCAGCCCUCAGAGCUAGAGAACAUCUUCGGAUGCAGAGGAGGCAGGCUUCGGUGGCGCGAUAGCGCCAACGUCCUCAACCUCAAAUGCAUCCCACCACAUGAUGAUUCCUGUAGAGCCUUGGUUUUUUU [U9A C22A C89A G113U A118U G135U],-5.73
19,GACCAAUCAGCCCUCAGAGCUCGAGAACAUCUUCGGAUGGAUAGGAGGCAGGCUUCGGUGGCGCGAUAGCGCCAACGUCCUCAACCUCCAAUGCAUCCCACCACAUGAUGAUGCCUGAAGAGCCUUGGUUUUUUG [U9A C40G G42U],-1.9
20,GACCAAUCAGCCCUCAGAGGUCGAGAACAUCUUCGGAUGCAGAGGAGGCAGGCUUCGGUGGCGAGAUAGCGCCAACGUCCUCAACCUCCAAUGCAUCCCACCACAUGAUGAAGCCUGAAGAGCCUUGAUUUUUUG [U9A C20G C64A U112A G128A],-5.8
21,GACCAAUCAGCCGUCAGAGCUCGAGAACAUCUUCGGAUGCAGAGGAGGCAGGCUUCGGUGUCGCGAUAGCGCCAACGUCCUCAACCUCCAAUGCAUCCCACCACAUGAUGAUGCCUGAAGAGGCUUGGUUUUUUG [U9A C13G G61U C123G],1.99

row,Variant,polymerase ribozyme fitness (log ratio)
1,GACCAAUCAGCCCUCAGAGCUCGAGAACAUCUUCGGAUGCAGAGGAGGCAGGCUUCGGUGGAGCGAUAGCGCCAACGUCCUCAACAUCCAAUGCAUCUCACCACAUGAUGAUGCCUGAAGAGCCUUGGUUUUUUG [U9A C62A C86A C98U],-2.77
2,GACCAAUCAGCCCUAAGAGCUCGAGAACAUCUUCGGAUGCAGAGGAGGCAGGCUUGGGUGGCGCGAUAGUGCCAAUGUCCUCAACCUCCAAUGCAUCCCACCACAUGAUGAUGCCUGAACAUCCUUGGCUUUUUG [U9A C15A C56G C70U C76U G120C G122U U129C],-6.98
3,GACCAAUCAGCCCUCAGAGCUCGAGAACAUCUUCGGAUGCAGAGGAGGCAGGCUUCGGUGGGGCGAUAGCGCCAACGUCCUCAACCUCCAAUGCAUUCCACCACAUGAGGAUGCCUGAAGAGCCUUGGUUUUUUG [U9A C62G C97U U109G],-7.26
4,GACCAAUCAGCCCUCAGAGCUCGAGAACAUCUUCGGAUGCAGAGGAGGCAGGUUUCGGUGGCGCGAUAGCGCCAACGUCCUCAACCUCCAAUGCAUCCCACCACAUGAUGAUGCCUGAAGAGGCUUGGUUUUUUG [U9A C53U C123G],1.66
5,GACCAAUCAGCUCUCAGAGCUCGAGAACAUCUUCGGGUGCAGAGGAGGCAGGCUUCGGUGGCGCGAUAGCGCCAACGUCCUCAACCUCCAAUGCAUCCCACCACAUGAUGAUGCCUGAAGAGCCUUGGUUUUUUG [U9A C12U A37G],-0.0422
6,GACCAAUCAGCCCUCAGAGCUCGAGAACAUCUUCGGAUGCAGAGGAGGCAGGCUUAGGUGCCGCGAUAGCGCCAACUUCCUCAACCUCCAAUGCAUCCCACCACAUGAUGAUGCCUUAAGAGCCUUGGUUUUUUG [U9A C56A G61C G77U G117U],-2.13
7,GACCAAUCAGCCCUCAGAGCUCGAGAACAUCUUCGGAUGCAGAGGAGGCAGGCUUCGGUGGCGCGAUAGUGCCAACGUCCUCAACCUACAAUGCAUCCCAUCACAUGAUGAUGCCUGAAGAGCCUUGGUUUAUUG [U9A C70U C88A C101U U132A],-0.202
8,GACCAAUCAGCCCUCAGAGCUCGAGAACAUCUUCGGAUGGAGAGGAGGCAGGCUUCGGUGGCGCGAUAGCGCCAACGUCCUCAACCUCCAAUGCAUCCCACCACAUGAUGAUACCUGAAGAGCCUUGGUUUUUUG [U9A C40G G113A],-0.901
9,GACCAAUCAGCCCUCAGAGCUCGAGAACAUGUUCGGAUGCAGAGGAGGCAGGCUUCGGUGGCGCGAUAGCGCCAACGUCCUCAACCUCCAAUGCAUCCCACCACAUGAUGAUGCCUGAAGAGCCUUGGUUUUUUG [U9A C31G],-4.11
10,GACCAAUCAGCCCUCAGAGCUCGAGAACAUCUUCGGAUGGAGAGGAGGCAGGCUUCGGUGGCGCGAUAGCGCCAACGUCCUCAACCUCCAAUGCAUCCCACCACAUGAUGAUGCCUGAAGAGCCUUGGUUUUUUG [U9A C40G],0.644
11,GACCAAUCAGCCCUCAGAGCUCGAGAACAUCUUCGGAUGGAGAGGAGGCAGGCUUCGGUGGCGCGAUAGCUCCAACGUCCUCAACCUCCAAUGCAUCCCACCACAUGAUGAUGCCUGAAGAGCCUUGGUUUUUUG [U9A C40G G71U],-0.173
12,GACCAAUCAGCCAUCAGAGCUGGAGAACAUCUUCGGAUGCAGAGGAGCCAGGCUUCGGUGGCGCGAUAGCACCAACGUCCUCAACCUCCAAUGCAUCCCACCACAUGAUGAUGCCUGAAGAGCCUUGGUUUUUUG [U9A C13A C22G G48C G71A],-5.83
13,GACCAAUCAGCUCUCAGAGCUCGAGAACAUCUUCGGAUGCAGAGGAGGCAGGCUUCGGUGGCGCGAUAGCGCCAACGUCCUCAACCUCCAAUGCAUCCCACCACAUGAUGAUGCCUGAAUAGCCUUGCUUUUUUG [U9A C12U G120U G128C],0.498
14,GACCAAUCAGCCCUCAGAGCUCGAGAACAUCUUGGGAUGCAGAGGAGGCAGGCUUCGGUGGCGCGAUAGCGCCAAGGUCCUCAAGCUCCAAUGCAUCCCACCACAUGAUGAUGCCUGAAGAGCCUUGGUUUUUUG [U9A C34G C76G C85G],-6.38
15,GACCAAUCAGCCAUCUGAGCUCGAGAACAUCUUGGGAUGCAGAGGAGCCAGGCUUCGGUGGCGCGAUAUCGCCAACGUCUUCAACCUCCAAUGCAUCCCACCACAUGAUGAUGCCUGAAGAGCCUUGGUUUUUUG [U9A C13A A16U C34G G48C G69U C80U],-4.42
16,GACCAAUCAGCCUUCAGAGCUCGAGAACAUCUUCGGAUGCAGAGGAGGCAGGCUUCGGUGGCGGGAUAGCGCCAACGUCCUCAACCUCCAAUGCAUCCCACCACAUGAUGAUGCCUGAAGAGCCUUGGUUUUUUG [U9A C13U C64G],-5.17
17,GACCAAUCAGCCCUCAGAGCUCGAGAACAUCUUCGGAUGCAGAGGAGGCAGGCUUCGGUGGUGCGAUAGCGCCAACGUCCUCAACCUCCAAUGCAUCCCACCACAUGAUGAUGCCUGAAGAGCCUUGGUUUUUUG [U9A C62U],0.575
18,GACCAAUCAGCUCUCAGAGCUCGAGAACAUCUUCGGAUGCAGAGGAGGCAGGCUUCGGUGCCGCGAUAGCGCCAACGUCCUCAACCUCCAAUGCAUCCCACCACAUGAUGAUGCCUGAAGAGCCUUGGUUUUUUG [U9A C12U G61C],-1.89
19,GACCAAUCAGCCCUCAGAGCUCGAGAACAUCUUCGGAUGCAGAGGAGGCAGGCUUCGGUGGAGCGAUAGCGCCAACGUCCUCAACCUUCAAAGCAUCCCACCACAUGAUGAUGCCUGAAGAGCCUUGGUUUUUUG [U9A C62A C88U U92A],-4.26
20,GACCAAUCAGCCUUCAGAGCUCGAGAACAUCUUCGGAUGCAGAGGAGGCAGGCUUCGGUGGAGCGAUAGCGCCAACGUGCUCAACCUCCAAUGAAUCCCACCACAUGAUGAUGCCUGAAGAGCCUUGGUUUAUUG [U9A C13U C62A C79G C94A U132A],-4.57
21,GACCAAUCAGCCCUCAGAGGUCGAGAACAUCUUCGGAUGCAGAGGAGGCAGGCUUCGGUGGCGCGAUAGCGUCAACGUCCUCAACCUCCAAUGCAGCCCACCACAUGAUGAUGCCUGAAGAGCUUUGGUUUUUUG [U9A C20G C72U U96G C124U],-3.12
